Results from patent US20260273054A1 (published 2026).
Blank lines part the entries; values can stand above or below the binder they belong to.

Key:
[1] = molecular target: T1, EGFR wild type (L858) peptide on HLA-A*11:01 (human); test: activation reporter or marker
T1 peptide: KITDFGLAKL

[2] = molecular target: T2, EGFR wild type (L858) peptide on HLA-A*11:01 (human); test: activation reporter or marker
T2 peptide: KITDFGLAK

[3] = molecular target: T3, EGFR L858R peptide on HLA-A*11:01 (human); test: activation reporter or marker
T3 peptide: KITDFGRAK

[4] = molecular target: T4, EGFR wild type (L858) peptide on HLA-A*11:01 (human); test: activation reporter or marker
T4 peptide: VKITDFGLAK

[5] = molecular target: T5, EGFR L858R peptide on HLA-A*11:01 (human); test: activation reporter or marker
T5 peptide: KITDFGRAKL

[6] = molecular target: T2, EGFR wild type (L858) peptide on …; test: killing
[7] = molecular target: T3, EGFR L858R peptide on HLA-A*11:01; test: killing

binding result [1]: no recognition
binding result [2]: no recognition
binding result [3]: recognises
binding result [4]: no recognition
binding result [5]: no recognition
B1: 0013-TCR102 (TCR, V domains shown)
Valpha: VGLHLPTLSVQEGDNSIINCAYSNSASDYFIWYKQESGKGPQFIIDIRSNMDKRQGQRVTVLLNKTVKHLSLQIAATQPGDSAVYFCAETPDKLIFGTGTRLQVFP
Vbeta: DTGVSQDPRHKITKRGQNVTFRCDPISEHNRLYWYRQTLGQGPEFLTYFQNEAQLEKSRLLSDRFSAERPKGSFSTLEIQRTEQGDSAMYLCASSGGGDSPLHFGNGTRLTVT

binding result [1]: no recognition
binding result [4]: no recognition
binding result [5]: no recognition
B2: 0013-TCR319 (TCR, V domains shown)
Valpha: QSVTQPDIHITVSEGASLELRCNYSYGATPYLFWYVQSPGQGLQLLLKYFSGDTLVQGIKGFEAEFKRSQSSFNLRKPSVHWSDAAEYFCAVGGGGADGLTFGKGTHLIIQP
Vbeta: DVKVTQSSRYLVKRTGEKVFLECVQDMDHENMFWYRQDPGLGLRLIYFSYDVKMKEKGDIPEGYSVSREKKERFSLILESASTNQTSMYLCATLWYRQGADGYTFGSGTRLTVV
binding result [6]: no recognition
binding result [7]: recognises

binding result [1]: no recognition
binding result [4]: no recognition
B3: 0013-TCR1 (TCR, V domains shown)
Valpha: QKEVEQNSGPLSVPEGAIASLNCTYSDRGSQSFFWYRQYSGKSPELIMSIYSNGDKEDGRFTAQLNKASQYVSLLIRDSQPSDSATYLCAVYNNNDMRFGAGTRLTVKP
Vbeta: GVSQTPSNKVTEKGKYVELRCDPISGHTALYWYRQSLGQGPEFLIYFQGTGAADDSGLPNDRFFAVRPEGSVSTLKIQRTERGDSAVYLCASSFLAGHLYTGELFFGEGSRLTVL
binding result [6]: no recognition
binding result [7]: recognises
